# Measured values from patent publication US7888068B2, “Cloning of honey bee allergen C” (PLS-Design GmbH, priority 2006, dated 2011).
# Entries after “also recorded” stand apart in the source; their conditions may differ.
# B1: recombinant Api m 5: cloned recombinant Api m 5 expressed from vector pIB/Api5 with melittin signal sequence and His-tag (protein, listed as Apis mellifera)
# chain: MEVLVQLALLLVVHGSLVVLVAGKSVPRVIDQDLERYEPLEEEDHRGARVPFNLEETYDQSFRANSFNGTWKTDREILYSDNYVGDIRLFDVTTGSGTVLLDSSVTADFDKASVMFSFDNSHVAIGHDYVNGFRYSIHQKCTVYNIKSRTFTDIANGDRIPLFKWSPTRNALIYVHKNDIYYQVFFEGGSDTRRITNTGVPDIVFNGIPDWVYEEEVLGSPVAFWISPDGRHLAFATFNDTNVRDIVISKYGSPGNSRDQYPNEIRIKYPKAGTTNPFVSLSVIDLHDPSSKLIDLPPPVDVVGADNVLYTANWRRDGEIVATWTNRVQNKAQLVLYDTKGNANNIYYEEETEGWLRIQPPLYHDRYVIVAKLQDSGTKAGRFLHATRLEYRNGALVDETDLTPGTCEVISLLLVDHARARLYYLGTELGKPSHKNLYSVQLSGNEPPVCLSCDVLTPEGNRCTYAYAYFSTNGSHYALYCAGPDPVFIAIVNANHRQISIWEENRSLRRKLAARTQPIVKNFNVNANGYTNKVKLYLPPDFDETKKYPLLITVYAGPNTIRITEEATYGFESYIVTNRSVIYGRIDGRGSAYKGSKMLFEIYRRLGTVEIEDQIIITRTLQEKYSWIDSNRTGIWGWSYGGFSAAMVLATDAESVFKCGISVAPVTSWIYYDSLYTERFMGLPTPEDNQSGYNDTDVSRRVEGMRGKKYMLIHGTADDNVHYQQTMMLNKALVNSDIMFQQQTYTDEAHALGNVFPHLYHTTDRFWANCLGYSH
# modifications: His-tag, melittin signal
# B2: Api m 5 (protein)
# chain: KSVPRVIDQDLERYEPLEEEDHRGARVPFNLEETYDQSFRANSFNGTWKTDREILYSDNYVGDIRLFDVTTGSGTVLLDSSVTADFDKASVMFSFDNSHVAIGHDYVNGFRYSIHQKCTVYNIKSRTFTDIANGDRIPLFKWSPTRNALIYVHKNDIYYQVFFEGGSDTRRITNTGVPDIVFNGIPDWVYEEEVLGSPVAFWISPDGRHLAFATFNDTNVRDIVISKYGSPGNSRDQYPNEIRIKYPKAGTTNPFVSLSVIDLHDPSSKLIDLPPPVDVVGADNVLYTANWRRDGEIVATWTNRVQNKAQLVLYDTKGNANNIYYEEETEGWLRIQPPLYHDRYVIVAKLQDSGTKAGRFLHATRLEYRNGALVDETDLTPGTCEVISLLLVDHARARLYYLGTELGKPSHKNLYSVQLSGNEPPVCLSCDVLTPEGNRCTYAYAYFSTNGSHYALYCAGPDPVFIAIVNANHRQISIWEENRSLRRKLAARTQPIVKNFNVNANGYTNKVKLYLPPDFDETKKYPLLITVYAGPNTIRITEEATYGFESYIVTNRSVIYGRIDGRGSAYKGSKMLFEIYRRLGTVEIEDQIIITRTLQEKYSWIDSNRTGIWGWSYGGFSAAMVLATDAESVFKCGISVAPVTSWIYYDSLYTERFMGLPTPEDNQSGYNDTDVSRRVEGMRGKKYMLIHGTADDNVHYQQTMMLNKALVNSDIMFQQQTYTDEAHALGNVFPHLYHTTDRFWANCLGYSH
# Experiments:
# [1] = Dipeptidyl peptidase activity assay with Gly-Pro p-nitroanilide substrate; assay type: biochemical; conditions: 0.5 mM Gly-Pro-pNA, 25° C., monitored at 405 nm, compared to buffer alone
# Procedure: One putative target of the enzyme might be the specific cleavage of the N-terminal peptide of pro-melittin to generate active melittin. The cleavage releases dipeptides with a C-terminal proline. Activity of such dipeptidases can be examined using the substrate Gly-Pro p-nitroanilide hydrochloride (Ref 22). Purified Api m 5 in NTA-binding buffer containing 300 mmol/L was incubated with 0.5 mM glycylpropyl p-nitroanilide (Gly-Pro-pNA, Sigma-Aldrich GmbH, Munich, Germany) as a substrate at 25° C. Released p-nitroaniline was spectrophotometrically monitored at 405 nm (FIG. 10).
# [2] = tested on: IgE from pooled serum from honey bee allergic patients; assay: Immunoprinting of enriched Api m 5 with pooled serum from honey bee allergic patients (AlaBLOT, anti-IgE detection); assay type: binding, human; conditions: pooled serum from honey bee allergic patients diluted 1:10; anti-IgE alkaline phosphatase conjugate; BSA negative control
# Procedure: Detection was performed with anti-IgE alkaline phosphatase conjugate (DPC Alablot system). Lane 1: BSA, negative control; Lane 2: honey bee venom; Lane 3: Enriched Api m 5 fraction; Lane 4: Protein standard (PageRuler™ Prestained Protein Standard, Fermentas GmbH).
# Immunoprinting was performed to verify the allergic potential of enriched Api m 5. Two SDS-PAGE gel slabs with each containing samples of bovine serum albumin, honey bee venom and bee venom enriched in Api m 5, were run and eletroblotted onto a nitrocellulose membranes (Protran™, Whatman GmbH, Dassel, Germany). The nitrocellulose membranes were pre-equilibrated in transfer buffer (20 mm CAPS, pH 11, 10% (v/v) methanol). Transfer was done at 50V for 3 hours submersed in blotting buffer in a blotting chamber (model TE22, Amersham Pharmacia, Freiburg, Germany) according to the instructions of the manufacturer. One membrane was subsequently stained with coomassie brilliant blue G250 according to the instructions of the manufacturer. […] Using the AlaBLOT system kit (DPC Biermann GmbH, Bad Nauheim, Germany) blocked sample strips were incubated with pooled serum from honey bee allergic patients diluted 1:10, washed and analyzed for binding of anti-IgE antibodies.
# bee venom allergic sera = conditions: two studies (Ref. 10); cited from earlier work
# [3] = tested on: phospholipase A2 (Api m 1), hyaluronidase (Api m 2), acid phosphatase (Api m 3), and melittin (Api m 4); conditions: versus Api m 1, Api m 2, Api m 3, Api m 4 and other minor components (Ref. 14); cited from earlier work
Molecule,dipeptidyl peptidase activity (release of p-nitroaniline) [1],binding of IgE / allergic potential in immunoprinting [2],reaction of bee venom allergic sera (bee venom allergic sera),cross-reactivity in immunodiffusion [3]
B1,Clearly the peptidase activity of recombinant Api m 5 in releasing the chromogenic label from the dipeptide can be seen; also recorded: showed a dipeptidyl peptidase activity,,,
B2,,binds to sIgE of honey bee allergic patients; also recorded: exhibited the allergic potential as seen in whole bee venom,virtually all tested bee venom allergic sera have been shown to react,noncross-reactive
